This is an account of results in the Immune Epitope Database (IEDB).

The target in assay [1] is HLA-B*57:01. In words: IEDB peptide-MHC binding, purified MHC/competitive/radioactivity; filed as Kd, often an IC50 or EC50 that approximates it; ≥ and ≤ were set here for values at or beyond the usual limits of such assays.
In assay [2] the target is HLA-B*57:01. The experiment in a line: IEDB peptide-MHC binding, purified MHC/competitive/radioactivity; ≥ and ≤ were set here for values at or beyond the usual limits of such assays.
Setting [3] is: source organism: Simian immunodeficiency virus.
Where [4] appears, read: source organism: Human immunodeficiency virus 2.
[5] abbreviates: source organism: Mammarenavirus choriomeningitidis.

LLHSTYFPC: the Kd with HLA-B*57:01 [1] (setting [3]) is at least 50000 nM.

Regarding WIQLGLQKC, the equilibrium dissociation constant (Kd) in the assay with HLA-B*57:01 [1] (setting [4]) is at least 10000 nM.

On to KIYEGQVEV, for which, in the assay with HLA-B*57:01 [2] (source organism: Homo sapiens), the IC50 worked out at 10000 nM.

Turning to LKSLYNTVC, the Kd in the assay with HLA-B*57:01 [1] (setting [3]) was at least 30000 nM.

For the sequence KVGWAWWTC, in the assay with HLA-B*57:01 [2] (setting [4]), the IC50 turned out to be 3000 nM.

Turning to IVSSLHLSI, the half-maximal inhibitory concentration (IC50) with HLA-B*57:01 [2] (setting [5]) stood at 1000 nM.

Consider TVAPFNPTV, for which the IC50 in the assay with HLA-B*57:01 [2] (source organism: Homo sapiens) is 1000 nM.

As for QAQLNAWGC, the equilibrium dissociation constant (Kd) with HLA-B*57:01 [1] (setting [3]) is at least 40000 nM.

In the case of MFEALPHII, in the assay with HLA-B*57:01 [1] (setting [5]), the Kd was at least 50000 nM.

For the sequence RTFHHGVRV, in the assay with HLA-B*57:01 [2] (source organism: Homo sapiens), the 50% inhibitory concentration (IC50) was 200 nM.

On to ATCGIFALI, for which, in the assay with HLA-B*57:01 [2] (setting [5]), the IC50 turned out to be 200 nM.

On to KVAKVEPAV, for which the equilibrium dissociation constant (Kd) with HLA-B*57:01 [1] (source organism: Homo sapiens) is at least 70000 nM.

With SIFLHLVKI, in the assay with HLA-B*57:01 [2] (setting [5]), the IC50 stood at 500 nM.

RARQLNYTI: the IC50 with HLA-B*57:01 [2] (source organism: Homo sapiens) was 13.7 nM.

Turning to MYGLKGPDI, the Kd with HLA-B*57:01 [1] (setting [5]) was at least 50000 nM.

Consider KSNGTIIHV, for which the IC50 with HLA-B*57:01 [2] (source organism: Homo sapiens) stood at 10000 nM.

Turning to RVAGIHKKV, the dissociation constant Kd in the assay with HLA-B*57:01 [1] (source organism: Homo sapiens) is at least 70000 nM.

Regarding VTTDIQVKV, in the assay with HLA-B*57:01 [2] (source organism: Homo sapiens), the 50% inhibitory concentration (IC50) stood at 2000 nM.

For SSCIAQDNC, the Kd in the assay with HLA-B*57:01 [1] (setting [3]) is at least 50000 nM.

Turning to ATIKLQSTV, the IC50 in the assay with HLA-B*57:01 [2] (source organism: Homo sapiens) was determined as 100 nM.

As a reminder, the Kd is the constant that tells how readily two partners part at equilibrium. One may read the IC50 as the concentration that inhibits the measured activity by half.
